Measured values: paper PMC13543948, “SNX-BAR proteins 5 and 6 are required for NCOA7-AS antiviral activity against influenza A virus” (The Journal of Biological Chemistry, 2026)
Where no end group is shown, it is not given here.

B1: MBP-tagged PX domain of SNX5 (MBP-PX-SNX5) (domain or fragment, human, UniProt Q9Y5X3 25-172, looked up)
chain: LNVDPSLQIDIPDALSERDKVKFTVHTKTTLPTFQSPEFSVTRQHEDFVWLHDTLIETTDYAGLIIPPAPTKPDFDGPREKMQKLGEGEGSMTKEEFAKMKQELEAEYLAVFKKTVSSHEVFLQRLSSHPVLSKDRNFHVFLEYDQDL
notes: Phox homology (PX) domain of human sorting nexin 5; Cloned in pMAL-p4X; also called PX-SNX5-WT; source: E. coli BL21 (DE3), purified (amylose resin, SEC)

Experiments:
Conditions in all cases: both partners purified
[1] = biological target: T1, GST-tagged NCOA7-AS (NCOA7-AS-WT-GST) (human, UniProt Q8NI08-5 1-219); assay: pull-down; GST-tagged proteins (14-35 μg) on glutathione agarose beads, 85 μg MBP-tagged protein, 2 h at 4 °C; 50 mM Tris-HCl pH 8, 600 mM NaCl, 5 mM β-mercaptoethanol, 10% glycerol; Western blot (GST, MBP)
T1 construct: numbers count on: NCOA7-AS; Modified pET-30: MCS, TEV cleavage site, GST, His6; no cleavage is described for the GST-tagged proteins; also called GST-tagged-NCOA7-AS-WT; source: E. coli BL21 (DE3), purified (Ni-NTA, SEC); not shown: GST, C-terminal, kept
T1 sequence (looked up): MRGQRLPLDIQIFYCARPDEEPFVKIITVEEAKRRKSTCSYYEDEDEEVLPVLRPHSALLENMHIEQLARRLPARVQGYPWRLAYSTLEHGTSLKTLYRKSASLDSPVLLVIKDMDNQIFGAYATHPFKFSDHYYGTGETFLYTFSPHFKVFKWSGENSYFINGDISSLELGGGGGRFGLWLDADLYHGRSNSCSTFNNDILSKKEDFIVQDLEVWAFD

[2] = biological target: T2, GST-tagged NCOA7-AS-Y14F (human, UniProt Q8NI08-5 1-219, Y14F); assay: as above
T2 construct: source: E. coli BL21 (DE3), purified (Ni-NTA, SEC); not shown: GST, C-terminal, kept
T2 sequence (looked up): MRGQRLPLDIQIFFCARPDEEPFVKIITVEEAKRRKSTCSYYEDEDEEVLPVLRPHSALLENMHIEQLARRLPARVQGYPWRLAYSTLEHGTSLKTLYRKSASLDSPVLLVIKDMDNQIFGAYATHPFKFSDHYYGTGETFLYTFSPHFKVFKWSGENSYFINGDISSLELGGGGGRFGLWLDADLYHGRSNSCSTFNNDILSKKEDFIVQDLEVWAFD

[3] = biological target: T3, MBP-tagged PX domain of SNX5 with F136A (MBP-PX-SNX5-F136A) (human, UniProt Q9Y5X3 25-172, F136A); assay: microfluidic diffusional sizing; 57 nM FITC peptide tracked, MBP-PX-SNX5 proteins titrated 0.38-250 μM in PBS-10% glycerol; Fluidity One-W; hydrodynamic radius; one-site specific binding fit; apparent Kd
T3 construct: Phox homology (PX) domain of human sorting nexin 5; pMAL-PX-SNX5-F136A by site-directed mutagenesis; also called F136A mutant; source: E. coli BL21 (DE3), purified (amylose resin, SEC)
T3 sequence (looked up): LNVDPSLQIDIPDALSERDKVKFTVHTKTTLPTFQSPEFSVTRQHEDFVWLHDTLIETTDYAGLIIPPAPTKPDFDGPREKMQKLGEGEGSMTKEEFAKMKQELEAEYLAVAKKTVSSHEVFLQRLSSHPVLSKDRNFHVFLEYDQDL

[4] = biological target: B1; assay: as above
[5] = biological target: B1; assay: pull-down; GST-tagged proteins (14-35 μg) on glutathione agarose beads, 85 μg MBP-tagged protein, 2 h at 4 °C; 50 mM Tris-HCl pH 8, 600 mM NaCl, 5 mM β-mercaptoethanol, 10% glycerol; Western blot (GST, MBP)

## B1
[1]
  binding result: binds
[2]
  binding result: binds

B2: FITC conjugated NCOA7-AS peptide (NCOA7-AS-NTD-FITC) (peptide)
peptide: RLPLDIQIFYCARPDEEPFVKIITVEEAKRR
modifications: also: FITC conjugated, position not given here
notes: numbers count on: NCOA7-AS; Printed as NH2-...-COOH; Limits worked out from Tyr14, Gln11, Glu21 and Val24 as numbered in the structure; also called fluorescently labeled NCOA7-AS-NTD
[3]
  Kd: 13.4 µM
[4]
  Kd: 1.4 µM

B3: GST-tagged NCOA7-AS N-terminal domain (NCOA7-AS-NTD-GST) (domain or fragment, human, UniProt Q8NI08-5 1-53, looked up)
chain: MRGQRLPLDIQIFYCARPDEEPFVKIITVEEAKRRKSTCSYYEDEDEEVLPVL
notes: numbers count on: NCOA7-AS; source: E. coli BL21 (DE3), purified (Ni-NTA, SEC); not shown: GST, C-terminal, kept
[5]
  binding result: binds
